The supplement of paper PMC12636428

What follows are sequences tested on Saccharomyces cerevisiae (assay: transcriptional activation domain activity (GFP:mCherry ratio, weighted mean of sorted bins, harmonized to initial dataset scale) (arbitrary fluorescence ratio units); higher = stronger transcriptional activation). Settings: beta-estradiol 1 µM; induction time 4 h.
Summary of the method: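 The listed activation activity is a read-weighted mean of bin median fluorescence, averaged across barcodes and linearly mapped onto the initial dataset scale. Barcoded tiles, fused to an estradiol-inducible synthetic transcription factor, were integrated at URA3 in yeast diploids bearing a GFP reporter. Cells were held 4 hours at 30 °C in SC with 1 uM beta-estradiol, sorted into 8 GFP:mCherry bins, and sequenced, and tiles with fewer than 50 reads were excluded.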
With “RRARAHAGMRTRARGGQRAEGVGGVQKARRQTAQGARGACRGREGRRAAGGRL” the “transcriptional activation domain activity” value was 8470.
With “RRARSVVEVAQTDDTGEEEDNNINSSNNINNKKKKIILELENGAETLEGDLLL” the “transcriptional activation domain activity” value was 16500.
In the case of “RRAVRPADADEREAVARVRPRARRRLGDVRDELDPRRGRRRVHGRIWGGVVRL”, the “transcriptional activation domain activity” value is reported as 68000.
For “RRDALRAQQQRDTHARHGAGAARKHGQPVCVRQHRGQLHLSEPVGGAAAAAVH”, the “transcriptional activation domain activity” value was 66200.
“RRDCATSSDARTPARLCCSHGVGTKLDKAETSREVSAEEARALADAHGARFCE” was tested, and the “transcriptional activation domain activity” value was 24300.
For “RRDILHRAIVFEGDAARSGTASTKWRSEVRGSARKMRPQKGSGRARLGDKKSP”, the “transcriptional activation domain activity” value was 15600.
In the case of “RRDSVSSSSRGQGGEKGRASSKESNNSGRQGETTSNRSQSKNRAKQTKGDKDS”, the “transcriptional activation domain activity” value is reported as 15900.
“RRDVTLMGGLCLHTIQGAYLAACAYFVVPFSLVVSLGFEALLLLFCFIFIFIF” was tested, and the “transcriptional activation domain activity” value was 50400.
For “RREERRGEDGHRHRRTRRYSEDEDEEGERRSRGKERGGEERREKRREERRDAG”, the “transcriptional activation domain activity” value was 16800.
In the case of “RRERKERKRARKEKDRRKRRHRRSQTDSDEEDRERHRDSRRKRSRSASRERRE”, the “transcriptional activation domain activity” value is reported as 20000.
For “RRGEGRRGEGRRGEGRRGEGRRGEGRRGEGRGGEGRGGRGGRGRGSSGTGTGS”, the “transcriptional activation domain activity” value was 28000.
“RRGSKGKQRASGNRGPGGSGGSRGWGQRTASHGKAGKGTGKRSGSNSGSHGES” was tested, and the “transcriptional activation domain activity” value was 37100.
“RRKEKKPRFAKKDKGSKEPVSKTCRIALRIKLCHGNICVMEVSLSVLASLVLH” was tested, and the “transcriptional activation domain activity” value was 53100.
With “RRKRRERREEERGRDKQGEEGGGRKGGGNRKEGGGGRRGRRSRGGGGGGAEGA” the “transcriptional activation domain activity” value was 27800.
With “RRKRRRRGGEDEQQAEVEDNDRHRSSRHHRRRRRETSEEKSPRRRATDRRRHP” the “transcriptional activation domain activity” value was 34600.
“RRLAGLLRHLQHRTREMGGHIVLIADPTQVCFVLLRPIIKKPALPAELVRKFW” was tested, and the “transcriptional activation domain activity” value was 44800.
In the case of “RRNRRTDKKRNEKESEHEGSTRKRTSYDKDDERAHSDSRRSRHHHRKERKNRH”, the “transcriptional activation domain activity” value is reported as 32100.
“RRPRAAKPGTEQPKPETEKPGSEKRPGSEKRPRGRPRKAAAKPSTEKQPSNAK” was tested, and the “transcriptional activation domain activity” value was 21300.
“RRRFHRRVTGCNCGVKTYKLGESYNDEFESTYLSYYACRICLLVTSLYIARFW” was tested, and the “transcriptional activation domain activity” value was 44500.
With “RRRFRNAKYFVHFIQLVRLLNICLQFEISNAEIEEVRVGFIAWVRRYEELYYQ” the “transcriptional activation domain activity” value was 42800.
In the case of “RRRGGRGAGEGGEGEQEKGEGEQEKGEGEQERGGKGSRRRGGRGAGEGGEGEQ”, the “transcriptional activation domain activity” value is reported as 13900.
“RRRKSNSTKPGNAGSKPAKKNKGANSNERERESKEVDEDEDEGNGGGEGEGEE” was tested, and the “transcriptional activation domain activity” value was 8620.
With “RRRLNYISTRGLPHFFVLLFLIGLLILIVAMRVCLHILSKSSPLFFFLLILGC” the “transcriptional activation domain activity” value was 38500.
In the case of “RRRRAKSRDPERVRERSERRASRSPEKKDKSARSKSRLGRLAAGAAAAGAAAI”, the “transcriptional activation domain activity” value is reported as 42800.
In the case of “RRRRKARSARLKKAEKTAAAVGQEAKPKAENAEGASVPPRRKRRRARSRKPKK”, the “transcriptional activation domain activity” value is reported as 28100.
With “RRRRRHEEGGRGGDRSRGRDGERSSTRHEERRHRSRDRRDDRDRDRGSERRGH” the “transcriptional activation domain activity” value was 44500.
In the case of “RRRVNLLVCTCGMLISLIVVGGLGTTHRGGPFNKPVGITIVVFSYINIICFNF”, the “transcriptional activation domain activity” value is reported as 45300.
With “RRRWINSTIHNLFEVVLLPDLCGFCCFSMRFVVLIDLIGTLTLPVSVIYLVYL” the “transcriptional activation domain activity” value was 63200.
With “RRRWINSTVHNLCELIILPELFGFCCFSMRFFVFLDLLGTLILPATVVYLVYL” the “transcriptional activation domain activity” value was 51600.
With “RRSHRSHHSSRSRDEEGKERRSSRGEDEKRAHRSRDEDEGRRRRRSHRDRDEE” the “transcriptional activation domain activity” value was 18900.
For “RRSKHSSRSHRSRRHRDRSVSDENGTERRHKSERRHKHRHRSRSGGSRERRHT”, the “transcriptional activation domain activity” value was 47200.
In the case of “RRTPFLGVGRSEGKMRLEKFVDEIGQQREDGTDEFLVRGSKEEKTDVVTAVNH”, the “transcriptional activation domain activity” value is reported as 9610.
“RRTRYLVLCVALELISSILYLYLISIFGSLHLATFPLRLGFFFLLLSRLLCTM” was tested, and the “transcriptional activation domain activity” value was 35100.
For “RRTSSTSSPSRSSSGTRARARSRSSRSTRSAAACSPSTRRAPRPTARPSSRPS”, the “transcriptional activation domain activity” value was 27400.
With “RRVGEVMCFQALLHFLGMLSFWYGVLRRLGFTLINFFLNRVVLLGLLAFICYE” the “transcriptional activation domain activity” value was 69500.
With “RRVLVLVMEELGYRTDHAFRIAHRLDRLYQMALTRFLTLTAGVIDLMERIRMS” the “transcriptional activation domain activity” value was 58400.
In the case of “RRVTGKVLLLVWKLGVRPRLNVFEGVVHRLAVAGCFSQIPPAVALCRRILNRI”, the “transcriptional activation domain activity” value is reported as 59000.
For “RRVTSMRLDTEGYVGVLGVEVDFRGRMFDLTADILVRVRYCLQSTILLLEIPL”, the “transcriptional activation domain activity” value was 55100.
In the case of “RRVWLKYILYFVYGIVDWVYSTSLLKTMVWLRLPLYITVGKHVLVGLVGSMWV”, the “transcriptional activation domain activity” value is reported as 50000.
For “RRWQWYWGCFVCACALISLFLNVEVDRYRVQQLPLIVTSFFWYLMCMGTTCVV”, the “transcriptional activation domain activity” value was 44600.
In the case of “RRWTRSKWLLLCTYGMMFCIGLTMLLGCLLTWFRGYLRAEVITVGFKRILIIA”, the “transcriptional activation domain activity” value is reported as 47500.
With “RSAPGGRAGGRDGGSSSSSSDSSDEERETDGPVRKRRRTATSGARKAAPKSRP” the “transcriptional activation domain activity” value was 29200.
In the case of “RSDRDRRRKQSPESRGRRHRSRSKDARREKRKRADSEGEQSARRSRPSEHHRR”, the “transcriptional activation domain activity” value is reported as 19100.
In the case of “RSEKRSEERSSRSGPTDRVEGQERGSDRERGREKRGSDRESSRRDRGGEGERA”, the “transcriptional activation domain activity” value is reported as 31700.
In the case of “RSESGSPARRKKKRSSRDSEDSAGESSDSDAGARRKSRKGKDSRRDRKSKKDK”, the “transcriptional activation domain activity” value is reported as 37600.
In the case of “RSGYGSRDLYEYDLIEVRRTQVETALILTGLISLMKTNRSRERYVHTEHVTGT”, the “transcriptional activation domain activity” value is reported as 39500.
“RSHAGRGRSRSREKHEHHRSHHHREKRRRESEIERRDSKRAASPKSKPSENIH” was tested, and the “transcriptional activation domain activity” value was 27100.
“RSKAKDDDRSSDESDSKSSKSNKSKRSKHNNDSDSENGSSDEDRGSKRRKKSK” was tested, and the “transcriptional activation domain activity” value was 23000.
In the case of “RSKHWEMLSVLHAGMVLLTAWFFFHCIDLIIHLERARVAYGYIVVPALFDILR”, the “transcriptional activation domain activity” value is reported as 46500.
For “RSKSSDESSSDSDSDSGSESGSDSDTSRRKRSKSKSSSRSKSKSKSSKLRARS”, the “transcriptional activation domain activity” value was 10600.
In the case of “RSKVLRPFWLFLLALCYNLVHATALFYQVITLNVAVNSYSNALLTLLMSNQFV”, the “transcriptional activation domain activity” value is reported as 53500.
“RSLGIVFYFGLLLSFYFEFFFSSIFSFVIIIWLYPIGFLYICLSAAIPFPLLN” was tested, and the “transcriptional activation domain activity” value was 65000.
“RSLLWQLSVWSFIKLMILMLFGYRMEAISILGREVMLPRGLIGLGYDSIDHCG” was tested, and the “transcriptional activation domain activity” value was 47800.
In the case of “RSLQLSWSILLRFFKEHFCMDRLSLTIVDLGTLGSPLIRSERNGYLRRFFQVF”, the “transcriptional activation domain activity” value is reported as 46700.
For “RSMLFPKPSGFKFYRDSFRYISVMACVAMLGFIATFINFIRLGIAWHLIIVRA”, the “transcriptional activation domain activity” value was 54400.
“RSPRRQTQSSSTTPPARKTPTQTTKTHRTTSPTTRSSCRRASGRQTAPTHSSC” was tested, and the “transcriptional activation domain activity” value was 43100.
“RSRAEGGSSPGRGGSEDGAGAGKPGKERRDKSRGARAKQCGCKAVNQDKSCEC” was tested, and the “transcriptional activation domain activity” value was 21900.
For “RSRRAHPRTTSSRASPSCARSSRAPPRATSSSASTTSSTGTRSRTTTPSTSPR”, the “transcriptional activation domain activity” value was 18000.
In the case of “RSRSPEPARKKVDVKQEEPLASSKWAKDDDETLRKRESELKEGLLRKKVTASL”, the “transcriptional activation domain activity” value is reported as 34800.
With “RSSKPSSRFLVLTKQKVYILVTRMVQNAPQTTIERSVGISSISSASVSTLQDD” the “transcriptional activation domain activity” value was 29600.
In the case of “RSSLSSPPCPRSRRRMRVRSSTTTSTSPPARSSSADRTRPTSTTTAARPPACP”, the “transcriptional activation domain activity” value is reported as 22000.
